Measurements taken from paper PMC4082962.

Target: Cdc42, endogenous in human mammary epithelial cells (human (endogenous in MCF10A and HMEC)) (UniProt P60953)
Test: pull-down

Chain of UniProt P60953 (P60953 whole entry): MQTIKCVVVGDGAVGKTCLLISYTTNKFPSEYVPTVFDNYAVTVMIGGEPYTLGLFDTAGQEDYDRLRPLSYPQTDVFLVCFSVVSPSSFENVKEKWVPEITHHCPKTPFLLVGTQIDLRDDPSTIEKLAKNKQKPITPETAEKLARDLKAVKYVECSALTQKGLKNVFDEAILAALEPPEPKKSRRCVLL

Substance | percent decrease of the pull-down relative to TβRIII [%]
TβRIII-T841A (β-arrestin2 binding deficient) (from UniProt Q03167 21-851) (receptor) | 70
TβRIIIΔCyto (TβRIII lacking cytoplasmic domain) (domain or fragment) | 60
